Here are results for 2 molecules from patent US20220174981A1, “PROLINE TOLERANT TRIPEPTIDYL PEPTIDASES AND USES THEREOF” (DuPont Nutrition Biosciences APS, priority 2014, published 2022).

“And” between values parts separate entries of the source, which are not always exact repeats. Equal entries are not always repeated.

Experiment [1] deals with proline tolerant tripeptidyl peptidase (TRI083). The experiment in a line: Product inhibition of TRI083 (Ala-Ala-Ala-pNA substrate). The format is biochemical, T. reesei. As to conditions: treated as competitive inhibitors. On the procedure:
For proline tolerant tripeptidyl peptidase the chromogenic peptide H-Ala-Ala-Ala-pNA was used. The assay was conducted as follows, 27.5 μL of appropriately diluted enzyme was added to 200 μl McIlvaine buffer (20 mM, pH 4.0). After incubation at 50° C. for 5 min, 12.5 μL of the chromogenic peptide solution (5 mg/mL dissolved in dimethyl sulfoxide (DMSO); Sigma-Aldrich, Denmark) were added to the reaction mixture. The reaction was terminated by adding 50 μL of 0.5 M trichloroacetic acid (TCA; Sigma-Aldrich, Denmark). After centrifugation (15,000×g, 5 min), 240 μL of the solution were transferred to a microtiter plate (MTP; Kisker-biotech, Germany) and the absorption was measured in an MTP reader (Molecular Devices, Denmark) at 405 nm. One katal of proteolytic activity was defined as the amount of enzyme required to release 1 mol of p-nitroaniline per second.
Inhibition experiments were conducted with TRI083 and Ala-Ala-Ala-pNA ([…]) as substrate in the assay described in Example 8. The assay was run without inhibitor, with 3.6 mM tripeptide (H-Ala-Ala-Ala-OH; Bachem, Switzerland), 18 mM dipeptide (H-Ala-Ala-OH; Bachem, Switzerland) or 18 mM alanine (Sigma-Aldrich, Denmark). […]
Subsequently, TRI083 was analyzed for product inhibition without inhibitor, with 1 mg/mL H-Ala-Ala-Ala-OH as well with the PepN pre-hydrolyzed H-Ala-Ala-Ala-OH (1 mg/mL).

In a further experiment the test system is H-Ala-Ala-Phe-pNA. The experiment in a line: Low pH stability of tripeptidyl peptidases (pH 2.5, 40° C., 60 min), activity on H-Ala-Ala-Phe-pNA. The format is biochemical. As to conditions: for OD410nm (Final): after pH 2.5, 40° C., 60 min; for OD410nm (Initial): without incubation at 40° C. for 60 min. On the procedure:
As requirements for utilization of the enzymes in feed for monogastric animals, the enzymes should be active at lower pH. For this reason the number of tripeptidyl peptidases has been tested with the reaction on synthetic substrate AAF (H-Ala-Ala-Phe-pNA. BACHEM, L-1095), at pH 2.5.
The tripeptide substrate AAF was prepared at 2.5 mg/ml in DMSO. Tripeptidyl peptidases were used as broth. The reaction mixture containing 2.5 μl enzyme and 90 μL glycine acetic acid-Tris buffer (each buffer components at 50 mM, pH 2.5) was prepared in 96 well incubation plates.
The incubation plate was mixed and incubated at 40° C. for 60 min. Then 50 μl 0.2M Mes-NaOH pH6.0 was added to each well, mixed at 600 rpm for 2 min. After that, 5 ul of the incubation mixture were taken to 96 well assay plate already filled with 85 μl 0.1M acetic acid buffer, pH4.0 and 5 μl 2.5 mg/ml AAF substrate solution.
The reaction mixture was stirred at 600 rpm for 2 min and read directly in a microplate reader (Molecular Devices, Denmark) at 410 nm at 30° C. every 30 second for 15 min.
To measure initial enzyme activity, similar procedure was performed except the step of enzyme incubation at 40° C. for 60 min.

Experiment [2] has as its system whey protein isolate (WPI). Description: 15% WPI hydrolysis with endopeptidase and proline tolerant tripeptidyl peptidase homologues. The format is biochemical. As to conditions: after 7 h of hydrolysis, compared to the reference (endopeptidase); FIG. 14. On the procedure: For WPI hydrolysis, Lacprodan-9224 (Arla Food Ingredients, Denmark) was employed, a 15% (w/w) WPI suspension was prepared in H2Od and adjusted to pH 4.5 with acetic acid (Sigma-Aldrich, Denmark). To prevent microbial growth, 0.0285% (w/w) NaN3 was added. Subsequently, 1% (w/w) Alphalase® FP2 was added and a volume of 200 μl of the WPI suspension was transferred into each of the 96 wells of a microtiter plate (MTP; VWR, Denmark). Following this, 5 μl of each proline tolerant tripeptidyl peptidase homologue containing either 0 or 4375nkatH-Ala-Ala-Ala-pNA/mL were added to the particular wells of the MTP. Then, the MTP was sealed and placed in an incubator at 40° C. (iEMS incubator/shaker HT, Thermo Scientific, Denmark).
[…] Unhydrolyzed, precipitated WPI was removed by filtration (0.22 μm; Corning 3504 filter plate, Corning Incorporated, USA). The filtered WPI hydrolysate was employed for o-phthaldehyde (OPA) derivatization (Nielsen, Petersen et al. 2001). The OPA derivatization was conducted according to Nielsen et al., (2001) with minor modifications. A sample volume of 25 μl was transferred to a well and 175 μl of OPA-reagent, dissolved in trisodium phosphate-dodecahydrate, was added subsequently. The measured absorptions at 340 nm in a MTP reader (VersaMax, Molecular Devices, Denmark) were transformed into serine equivalents employing a serine calibration curve (0-2 mM).

The mark [3] stands for this setting: listed as TRI071 (pool1) 2% glu/soph.
[4] abbreviates: listed as TRI071 (pool1) 4% glu/soph.

As to `C[C@H](N)C(=O)O` [Alanine, alanine], in experiment [1], the Ki entry was “no inhibition at all”.

B1: TRI071: Proline tolerant tripeptidyl peptidase TRI071 (SEQ ID No. 12 or SEQ ID No. 39) (protein, listed as Fusarium oxysporum)
chain 1: KSFSHHAEAPQGWQVQKTAKVASNTQHVFSLALTMQNVDQLESKLLDLSSPDSANYGNWLSHDELTSTFSPSKEAVASVTKWLKSKGIKHYKVNGAFIDFAADVEKANTLLGGDYQYYTKDGQTKLRTLSYSIPDDVAGHVQFVDPSTNFGGTVAFNPVPHPSRTLQERKVSPSKSTVDASCQTSITPSCLKQMYNIGDYTPDAKSGSEIGFSSFLGQAAIYSDVFKFEELFGIPKQNYTTILINNGTDDQNTAHGNFGEANLDAENIVGIAHPLPFKQYITGGSPPFVPNIDQPTEKDNQNEPYVPFFRYLLGQKDLPAVISTSYGDEEDSVPREYATLTCNMIGLLGLRGISVIFSSGDIGVGSGCLAPDYKTVEFNAIFPATCPYLTSVGGTVDVTPEIAWEGSSGGFSKYFPRPSYQDKAIKKYMKTVSKETKKYYGPYTNWEGRGFPDVAGHSVAPDYEVIYNGKQARSGGTSAAAPVWAAIVGLLNDARFKAGKKSLGWLNPLIYKHGPKVLTDITGGYAIGCDGNNTQSGKPEPAGSGLVPGARWNATAGWDPTTGYGTPNFQKLKDLVLSL
chain 2: CQTSITPSCLKQMYNIGDYTPDAKSGSEIGFSSFLGQAAIYSDVFKFEELFGIPKQNYTTILINNGTDDQNTAHGNFGEANLDAENIVGIAHPLPFKQYITGGSPPFVPNIDQPTEKDNQNEPYVPFFRYLLGQKDLPAVISTSYGDEEDSVPREYATLTCNMIGLLGLRGISVIFSSGDIGVGSGCLAPDYKTVEFNAIFPATCPYLTSVGGTVDVTPEIAWEGSSGGFSKYFPRPSYQDKAIKKYMKTVSKETKKYYGPYTNWEGRGFPDVAGHSVAPDYEVIYNGKQARSGGTSAAAPVWAAIVGLLNDARFKAGKKSLGWLNPLIYKHGPKVLTDITGGYAIGCDGNNTQSGKPEPAGSGLVPGARWNATAGWDPTTGYGTPNFQKLKDLVLS
With B1, in the experiment with H-Ala-Ala-Phe-pNA (setting [3]), the “OD410nm (Final)” value was 0.589 and 0.672; the “OD410nm (Initial)” value is 0.757 and 0.815. Besides, in the experiment on H-Ala-Ala-Phe-pNA (setting [4]), the “OD410nm (Final)” value is 0.453 and 0.6; the “OD410nm (Initial)” value was 0.466 and 0.67. Moreover, the “relative increase of SE” value in experiment [2] was “about 64%”.
